B1: Hammerhead Ribozyme (parent)
chain: ACCGGAUGUGCUUUCCGGUCUGAUGAGUCCGUGAGGACGAAACAG

Variants of: B1
Assay: self-cleavage, relative activity (ratio to wild type); higher = more cleavage; co-transcriptional

Question: Which self-cleavage does the source give for ACCGGAUGUGCUUUCCGGUCUGAUGAGUACGCGAGGACGAAACAG [C29A U32C] here?
Answer: 0.866

Question: With ACAGGAUGUGCUUUCCAGUCUGAUGAGUCCGUGAGGACGAAACAG [C3A G17A] as the variant, how does the self-cleavage read?
Answer: 0.634

Question: With ACCGGAUGUGCUUUCCGGUCUGAUCAGUCCGUGAGGACGAAACAU [G25C G45U] as the variant, how does the self-cleavage read?
Answer: 0.279

Question: With ACCGGGUGUGCUCUCCGGUCUGAUGAGUCCGUGAGGACGAAACAG [A6G U13C] as the variant, how does the self-cleavage read?
Answer: 0.722

Question: For ACCGGAUGUGCUUUCCGGUCGGAUGAGUCCGUGAGGACGAAAGAG [U21G C43G], which self-cleavage is on record?
Answer: 0.324

Question: For ACCGGAUGUGCUGUCCGGUCUGAUGAGUCCGUGAGGACGAAACUG [U13G A44U], which self-cleavage is on record?
Answer: 0.644

Question: Which self-cleavage does the source give for ACCGGAUGUGCUUUCCGGUCAGAUGAGUCCGUGAGGCCGAAACAG [U21A A37C] here?
Answer: 0.529

Question: With ACUGGAUGUGCUUUCCCGUCUGAUGAGUCCGUGAGGACGAAACAG [C3U G17C] as the variant, how does the self-cleavage read?
Answer: 0.675

Question: For ACCGGCUGUGCUUUCCGGUCUGAUGAGUCCGUGAGGACGAAAGAG [A6C C43G], which self-cleavage is on record?
Answer: 0.294

Question: With ACCGGAUGUGCUUUCCGGUCUGCUGAGUCUGUGAGGACGAAACAG [A23C C30U] as the variant, how does the self-cleavage read?
Answer: 0.578

Question: Which self-cleavage does the source give for ACCGGAGGUGCUUUCCGGUCUGAUGAGUCCUUGAGGACGAAACAG [U7G G31U] here?
Answer: 1.18

Question: With ACCGGAUGUGCUUUCCGGUGUGAUGAGUCCGUGAGGACCAAACAG [C20G G39C] as the variant, how does the self-cleavage read?
Answer: 0.321

Question: Which self-cleavage does the source give for ACCGGAUGUGCUGUCCGGUCUGAUGAGUCCGUGAGGACAAAACAG [U13G G39A] here?
Answer: 0.332

Question: With ACCGGAUGUGCUUUCCGGUAUGAAGAGUCCGUGAGGACGAAACAG [C20A U24A] as the variant, how does the self-cleavage read?
Answer: 0.764

Question: For ACCGGAAGUGCUUGCCGGUCUGAUGAGUCCGUGAGGACGAAACAG [U7A U14G], which self-cleavage is on record?
Answer: 1.14

Question: With ACCGGAUGUGCUUUCCGGUCUGAUGAGCCCGUGAGGACGAAACUG [U28C A44U] as the variant, how does the self-cleavage read?
Answer: 0.599

Question: For ACCGGAAGUGCUUUCCGGUCUGAUGAGUCCGUGAGUACGAAACAG [U7A G36U], which self-cleavage is on record?
Answer: 0.585

Question: Which self-cleavage does the source give for ACCGGAUGUGCUUUCCGGUCUGAUGAGUGCGUGAGGACGCAACAG [C29G A40C] here?
Answer: 0.288

Question: For AACGGAUGUGCUUUCCGGUCAGAUGAGUCCGUGAGGACGAAACAG [C2A U21A], which self-cleavage is on record?
Answer: 0.351

Question: For ACCGGAUGUGCUUUCCGGUCUGAUGAGUCCGUGAGGACUGAACAG [G39U A40G], which self-cleavage is on record?
Answer: 0.361

Question: Which self-cleavage does the source give for ACCGGAUGUGCUUCCCGGUCUGAUGAGUCAGUGAGGACGAAACAG [U14C C30A] here?
Answer: 0.7

Question: Which self-cleavage does the source give for ACCGGAUGUGCUAUCCGGUCUAAUGAGUCCGUGAGGACGAAACAG [U13A G22A] here?
Answer: 0.298

Question: With ACCGGAUGUGCUUUGCGGUCUGAUGAGUCCGUGAGGACGAAACCG [C15G A44C] as the variant, how does the self-cleavage read?
Answer: 0.277

Question: Which self-cleavage does the source give for ACCGUAUGUGCUUUCCGGUCUGCUGAGUCCGUGAGGACGAAACAG [G5U A23C] here?
Answer: 0.339

Question: Which self-cleavage does the source give for ACCGGAUGUGCUUUCCGGUCUGAUGAGUCCGUGAGGACGAAACCA [A44C G45A] here?
Answer: 0.932

Question: Which self-cleavage does the source give for ACUGGAUGUGCUUUCCGGUCUGAUGAGUCCGUGAGGACGAAGCAG [C3U A42G] here?
Answer: 0.393

Question: For ACCGGAUGUGCUUUCCGGUCUGAUGAGUACGUGAGGACGAAGCAG [C29A A42G], which self-cleavage is on record?
Answer: 0.265

Question: Which self-cleavage does the source give for ACCGGAUGUCCUUUCCGGUCUGAUUAGUCCGUGAGGACGAAACAG [G10C G25U] here?
Answer: 0.277

Question: With ACCAGAUGUGCUUUCCGGUCUGAUGAGUCCGUGAGGACUAAACAG [G4A G39U] as the variant, how does the self-cleavage read?
Answer: 0.26

Question: For ACCGUAUGUGCUUUCCGGUUUGAUGAGUCCGUGAGGACGAAACAG [G5U C20U], which self-cleavage is on record?
Answer: 0.595

Question: For AACGGAAGUGCUUUCCGGUCUGAUGAGUCCGUGAGGACGAAACAG [C2A U7A], which self-cleavage is on record?
Answer: 0.457

Question: With ACCGGAUGUGCUAUCCGGUCUGAUGAGUCCGUGAGGAAGAAACAG [U13A C38A] as the variant, how does the self-cleavage read?
Answer: 0.808

Question: With UCCGGAUGUGCUUUCCGGUCUGAUGAUUCCGUGAGGACGAAACAG [A1U G27U] as the variant, how does the self-cleavage read?
Answer: 0.417

Question: With AUCGGAUGUGCUUUGCGGUCUGAUGAGUCCGUGAGGACGAAACAG [C2U C15G] as the variant, how does the self-cleavage read?
Answer: 0.385

Question: Which self-cleavage does the source give for ACCGGAUGUGCUUUCCGGUCUGACGAGUCCGUGGGGACGAAACAG [U24C A34G] here?
Answer: 0.901

Question: With ACCGGAUGUGCUUUCCGGUCUGACGAGUCCGUGCGGACGAAACAG [U24C A34C] as the variant, how does the self-cleavage read?
Answer: 0.746

Question: For AACGGAUGUGCUUUCAGGUCUGAUGAGUCCGUGAGGACGAAACAG [C2A C16A], which self-cleavage is on record?
Answer: 0.365

Question: With ACCGGAUGUGCUUGCCGGUCUGAUGAGUCCGUGAGGACGAAACAG [U14G] as the variant, how does the self-cleavage read?
Answer: 0.77

Question: For ACCGGAUGUGCUUUCCGGUCGGAUGAGUCCUUGAGGACGAAACAG [U21G G31U], which self-cleavage is on record?
Answer: 0.743

Question: Which self-cleavage does the source give for ACCGGAUGUGCUUUCCGGUCUGAUGAGACCGUGAGGACGAAAAAG [U28A C43A] here?
Answer: 0.292

Question: Which self-cleavage does the source give for ACCGGAUGUGCGUACCGGUCUGAUGAGUCCGUGAGGACGAAACAG [U12G U14A] here?
Answer: 0.832

Question: With ACCGGAUGUGAUUUCGGGUCUGAUGAGUCCGUGAGGACGAAACAG [C11A C16G] as the variant, how does the self-cleavage read?
Answer: 1.1

Question: With AGCGGAUGUGCUUUCGGGUCUGAUGAGUCCGUGAGGACGAAACAG [C2G C16G] as the variant, how does the self-cleavage read?
Answer: 0.294

Question: With ACCGGAUGUACUUUCUGGUCUGAUGAGUCCGUGAGGACGAAACAG [G10A C16U] as the variant, how does the self-cleavage read?
Answer: 0.971

Question: With ACCGGAUGUGCUUUCCGGUCUGAUGAGUCCGUGAGGACGAAAUAU [C43U G45U] as the variant, how does the self-cleavage read?
Answer: 0.423

Question: Which self-cleavage does the source give for ACCGGAUGUGCUUUCCGGUCUGAUGUGUCCGUGAGGACGAAACUG [A26U A44U] here?
Answer: 0.443

Question: With ACCGGAUGUGCUUUCUGGUCUGAUGAGUCCUUGAGGACGAAACAG [C16U G31U] as the variant, how does the self-cleavage read?
Answer: 1.2

Question: With ACCGGAUGUGCUUUCCGGUUUGAUGAGUCCGUGGGGACGAAACAG [C20U A34G] as the variant, how does the self-cleavage read?
Answer: 0.407

Question: With ACCGGAUGUGCUUAGCGGUCUGAUGAGUCCGUGAGGACGAAACAG [U14A C15G] as the variant, how does the self-cleavage read?
Answer: 0.722

Question: With ACCGGAUGUGCUUUCCGGUAUGAUGAUUCCGUGAGGACGAAACAG [C20A G27U] as the variant, how does the self-cleavage read?
Answer: 0.302

Question: For ACCGUAUGUGCUUUCCGGUCUGAUGAGUCCGUGAGGACGAAACAC [G5U G45C], which self-cleavage is on record?
Answer: 0.443

Question: For ACCGGAUGUGGUUUCCGGUCUGAUGAGUCCGUGAGGGCGAAACAG [C11G A37G], which self-cleavage is on record?
Answer: 1.02

Question: With ACCGGAUGUGCUUCCCGGUCUGAAGAGUCCGUGAGGACGAAACAG [U14C U24A] as the variant, how does the self-cleavage read?
Answer: 0.726

Question: Which self-cleavage does the source give for ACCGGAUGGGUUUUCCGGUCUGAUGAGUCCGUGAGGACGAAACAG [U9G C11U] here?
Answer: 0.342

Question: For ACCGGAUGUGCUUUCCGGUCUGAUGAGUCAGUCAGGACGAAACAG [C30A G33C], which self-cleavage is on record?
Answer: 0.755

Question: With ACCGGAUGUGCUUUCCGAUCUGAUGAGUCCGUGAGGACGAAACAU [G18A G45U] as the variant, how does the self-cleavage read?
Answer: 0.469

Question: For ACCGGAUAUGCUUGCCGGUCUGAUGAGUCCGUGAGGACGAAACAG [G8A U14G], which self-cleavage is on record?
Answer: 0.988

From the RNAGym collection of RNA variant scans (doi:10.7554/elife.80360)
